# T1: His6-CH (recombinant GAS2L1 CH domain, His6 tagged) (human, UniProt Q99501 1-196)
# T1 sequence (looked up): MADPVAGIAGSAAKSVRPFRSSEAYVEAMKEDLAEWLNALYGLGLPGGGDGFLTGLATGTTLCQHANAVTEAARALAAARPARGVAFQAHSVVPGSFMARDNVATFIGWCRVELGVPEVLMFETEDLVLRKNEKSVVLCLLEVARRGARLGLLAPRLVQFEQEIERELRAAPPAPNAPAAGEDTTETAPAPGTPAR
# B1: His6-FLAG-GAR (recombinant GAS2L1 GAR protein, 197-300) (domain or fragment, human, UniProt Q99501 197-300, looked up)
# chain: GPRMTPSDLRNLDELVREILGRCTCPDQFPMIKVSEGKYRVGDSSLLIFVRVLRSHVMVRVGGGWDTLEHYLDKHDPCRCSSTAHRPPQPRVCTFSPQRVSPTT
# B2: His6-FLAG-CH-GAR (recombinant GAS2L1 1-300) (domain or fragment)
# chain: MADPVAGIAGSAAKSVRPFRSSEAYVEAMKEDLAEWLNALYGLGLPGGGDGFLTGLATGTTLCQHANAVTEAARALAAARPARGVAFQAHSVVPGSFMARDNVATFIGWCRVELGVPEVLMFETEDLVLRKNEKSVVLCLLEVARRGARLGLLAPRLVQFEQEIERELRAAPPAPNAPAAGEDTTETAPAPGTPARGPRMTPSDLRNLDELVREILGRCTCPDQFPMIKVSEGKYRVGDSSLLIFVRVLRSHVMVRVGGGWDTLEHYLDKHDPCRCSSTAHRPPQPRVCTFSPQRVSPTT
# How the values were obtained:
# [1] = molecular target: GAS2L1 S352A (Bio-GFP-tagged) (human) (UniProt Q99501); test: pull-down
# [2] = molecular target: GAS2L1 S352D (Bio-GFP-tagged) (human) (UniProt Q99501); test: pull-down
# [3] = molecular target: T1, His6-CH (recombinant GAS2L1 CH domain, …); test: pull-down
# [4] = molecular target: taxol-stabilized microtubules from porcine brain α/β-tubulin (porcine) (UniProt P02550); test: co-sedimentation
molecule,measurement,setting,value
"actin (endogenous, HEK293T; detected with anti-β-actin) (from UniProt P60709 1-375) (natural protein)",actin-binding activity relative to WT GAS2L1,[1],62 % lower
same,actin-binding activity relative to WT GAS2L1,[2],46 % higher
B1,binding result,[3],binds
B2,microtubule-binding activity relative to the GAR protein,[4],47 % lower

# From PMC7199859 (The Journal of Cell Biology, 2020)
